B1: NB-AGT-2 (VHH)
VHH: QVQLVESGGGLVQAGGSLRLSCAASGRTFSSYAMGWFRQAPGKEREFVAAINWSGGSTFYADSVKGRFTISRDNAKNTVYLQMNSLKPEDTAVYYCAAARADPYYSISYYSTTHEYDYWGQGTQVTVS
B2: NB-AGT-4 (VHH)
VHH: QVQLVESGGGLVQSGGSLRLSCVASGGTFSTWSMGWFRQAPGKEREFVAVISWSGTIADYGDSVKGRFTISRDNAKNTVYLQMNSLKPEDTAVYYCAADPVGRVLYSDVGWQYWGQGTQVTVS
B3: NB-AGT-3 (VHH)
VHH: QVQLVESGGGLVQAGGSLILSCAASGFTFGHYAIGWFRQAPGKEREGVSCINSNDGSTYYADSVKGRFTISSDNAKNTVYLQMNSLKPEDTAVYYCAADYPPYYCSGYGWPSDGINYWGKGTQVTVS
B4: NB-AGT-6 (VHH)
VHH: QVQLVESGGGSVQTGGSLRLACVASGFTSDHYSIGWFRQAPGKEREGVSCIGMHDGSTKYAESVKGRFTISSDNDKNTVYLQMNSLKPEDTAVYYCAAGPLVLLDSDTYQSWGEGTQVTVS
B5: NB-AGT-2, HA-tagged clone from the phage display vector (VHH)
VHH: QVQLVESGGGLVQAGGSLRLSCAASGRTFSSYAMGWFRQAPGKEREFVAAINWSGGSTFYADSVKGRFTISRDNAKNTVYLQMNSLKPEDTAVYYCAAARADPYYSISYYSTTHEYDYWGQGTQVTVS
B6: NB-AGT-4, HA-tagged clone from the phage display vector (VHH)
VHH: QVQLVESGGGLVQSGGSLRLSCVASGGTFSTWSMGWFRQAPGKEREFVAVISWSGTIADYGDSVKGRFTISRDNAKNTVYLQMNSLKPEDTAVYYCAADPVGRVLYSDVGWQYWGQGTQVTVS
B7: NB-AGT-3, HA-tagged clone from the phage display vector (VHH)
VHH: QVQLVESGGGLVQAGGSLILSCAASGFTFGHYAIGWFRQAPGKEREGVSCINSNDGSTYYADSVKGRFTISSDNAKNTVYLQMNSLKPEDTAVYYCAADYPPYYCSGYGWPSDGINYWGKGTQVTVS
B8: NB-AGT-6, HA-tagged clone from the phage display vector (VHH)
VHH: QVQLVESGGGSVQTGGSLRLACVASGFTSDHYSIGWFRQAPGKEREGVSCIGMHDGSTKYAESVKGRFTISSDNDKNTVYLQMNSLKPEDTAVYYCAAGPLVLLDSDTYQSWGEGTQVTVS

target: T1, alanine:glyoxylate aminotransferase 1, wild-type (major haplotype) (Homo sapiens, major haplotype, UniProt P21549); test: SPR
T1 sequence (P21549 whole entry): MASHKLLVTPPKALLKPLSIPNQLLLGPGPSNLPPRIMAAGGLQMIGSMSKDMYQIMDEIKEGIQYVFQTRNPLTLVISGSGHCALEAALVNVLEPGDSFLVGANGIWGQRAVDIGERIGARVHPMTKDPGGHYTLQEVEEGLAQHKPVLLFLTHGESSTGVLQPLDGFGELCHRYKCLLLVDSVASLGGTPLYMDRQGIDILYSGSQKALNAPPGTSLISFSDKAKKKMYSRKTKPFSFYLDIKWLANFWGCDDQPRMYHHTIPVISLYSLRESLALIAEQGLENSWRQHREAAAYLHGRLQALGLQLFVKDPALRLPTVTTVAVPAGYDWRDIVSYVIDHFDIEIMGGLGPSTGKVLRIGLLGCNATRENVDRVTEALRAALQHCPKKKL

Binder	binding result
B1	binds
B2	binds
B3	binds
B4	binds

target: T1, alanine:glyoxylate aminotransferase 1, …; test: ELISA

Binder	binding result
B5	binds
B6	binds
B7	binds
B8	binds

Reference: article doi:10.1101/2025.04.12.648492 (bioRxiv, 2025)
